B1: DOM1H-131-206 C-terminal AST (protein)
VH: EVQLLESGGGLVQPGGSLRLSCAASGFTFAHETMVWVRQAPGKGLEWVSHIPPDGQDPFYADSVKGRFTISRDNSKNTLYLQMNSLRAEDTAVYHCALLPKRGPWFDYWGQGTLVTVSSAST
B2: DOM1H-131-206 C-terminal ASTKG (protein)
VH: EVQLLESGGGLVQPGGSLRLSCAASGFTFAHETMVWVRQAPGKGLEWVSHIPPDGQDPFYADSVKGRFTISRDNSKNTLYLQMNSLRAEDTAVYHCALLPKRGPWFDYWGQGTLVTVSSASTKG
B3: DOM1H-131-206 P14Q + C-terminal ASTKG (protein, name in Kabat numbering)
VH: B2 VH with P14Q
B4: DOM1H-131-206 P14T + C-terminal ASTKG (protein, name in Kabat numbering)
VH: B2 VH with P14T
B5: DOM1H-131-206 P14A + C-terminal ASTKG (protein)
VH: B2 VH with P14A
B6: DOM1H-131-206 P14K + C-terminal ASTKG (protein, name in Kabat numbering)
VH: B2 VH with P14K
B7: DOM1H-131-206 C-terminal S deletion (ΔS) (protein)
VH: EVQLLESGGGLVQPGGSLRLSCAASGFTFAHETMVWVRQAPGKGLEWVSHIPPDGQDPFYADSVKGRFTISRDNSKNTLYLQMNSLRAEDTAVYHCALLPKRGPWFDYWGQGTLVTVS
B8: DOM1H-131-206 P14K (protein, name in Kabat numbering)
VH: EVQLLESGGGLVQKGGSLRLSCAASGFTFAHETMVWVRQAPGKGLEWVSHIPPDGQDPFYADSVKGRFTISRDNSKNTLYLQMNSLRAEDTAVYHCALLPKRGPWFDYWGQGTLVTVSS
B9: DOM1H-131-206 T110A (protein, name in Kabat numbering)
VH: B8 VH with K14P, T116A
B10: DOM1H-131-206 L108A (protein, name in Kabat numbering)
VH: B8 VH with K14P, L114A
B11: DOM1H-131-206 S112A (protein, name in Kabat numbering)
VH: B8 VH with K14P, S118A
B12: DOM1H-131-206 L11A (protein, name in Kabat numbering)
VH: B8 VH with L11A, K14P
B13: DOM1H-131-206 P14T (protein, name in Kabat numbering)
VH: B8 VH with K14T
B14: DOM1H-131-206 P14E (protein, name in Kabat numbering)
VH: B8 VH with K14E
B15: DOM1H-131-206 P14Q (protein, name in Kabat numbering)
VH: B8 VH with K14Q
B16: DOM1H-131-206 P14K + C-terminal A (protein, name in Kabat numbering)
VH: EVQLLESGGGLVQKGGSLRLSCAASGFTFAHETMVWVRQAPGKGLEWVSHIPPDGQDPFYADSVKGRFTISRDNSKNTLYLQMNSLRAEDTAVYHCALLPKRGPWFDYWGQGTLVTVSSA
B17: DOM1H-131-206 P14Q + C-terminal A (protein, name in Kabat numbering)
VH: B16 VH with K14Q
B18: DOM1H-131-206 P14A + C-terminal A (protein)
VH: B16 VH with K14A
B19: DOM1H-131-206 P14T + C-terminal A (protein, name in Kabat numbering)
VH: B16 VH with K14T
B20: DOM1H-131-206 C-terminal ASTK (protein)
VH: EVQLLESGGGLVQPGGSLRLSCAASGFTFAHETMVWVRQAPGKGLEWVSHIPPDGQDPFYADSVKGRFTISRDNSKNTLYLQMNSLRAEDTAVYHCALLPKRGPWFDYWGQGTLVTVSSASTK
B21: DOM1H-131-206 L108Q (protein, name in Kabat numbering)
VH: B8 VH with K14P, L114Q
B22: DOM1H-131-206 Q13A (protein, name in Kabat numbering)
VH: B8 VH with Q13A, K14P
B23: DOM1H-131-206 P14A (protein)
VH: B8 VH with K14A
B24: DT04-H-033 C-terminal AS (protein)
VH: EVQLLESGGGLVQPGGSLRLSCAASGFTFADYGMAWVRQAPGKGLEWVSTISYNGLYTYYADSVKGRTISRDNSKNTLYLQMNSLRAEDTAVYYCAKYEYSPESDFDYWGQGTLVTVSSAS
B25: DT04-H-033 C-terminal AAA (protein)
VH: EVQLLESGGGLVQPGGSLRLSCAASGFTFADYGMAWVRQAPGKGLEWVSTISYNGLYTYYADSVKGRTISRDNSKNTLYLQMNSLRAEDTAVYYCAKYEYSPESDFDYWGQGTLVTVSSAAA
B26: DT04-H-033 C-terminal AST (protein)
VH: B25 VH with A121S, A122T
B27: DOM1H-131-206 C-terminal AS (protein)
VH: EVQLLESGGGLVQPGGSLRLSCAASGFTFAHETMVWVRQAPGKGLEWVSHIPPDGQDPFYADSVKGRFTISRDNSKNTLYLQMNSLRAEDTAVYHCALLPKRGPWFDYWGQGTLVTVSSAS
B28: DT04-H-033 C-terminal A (protein)
VH: EVQLLESGGGLVQPGGSLRLSCAASGFTFADYGMAWVRQAPGKGLEWVSTISYNGLYTYYADSVKGRTISRDNSKNTLYLQMNSLRAEDTAVYYCAKYEYSPESDFDYWGQGTLVTVSSA

Changes are numbered by the printed parent chain. Numbers in names are those of the source.

The first assay concerns the target pre-existing anti-VH ADA in human serum. Nature of the assay: ADA confirmation assay (MSD): 10 ug/mL test material against labelled DOM1H-131-206, mean of 10 sera.
Regarding B1, the Mean % inhibition of signal in confirmation assay came out at 35%.

On to B2, for which the Mean % inhibition of signal in confirmation assay amounted to 1.77%.

For the molecule B3, the Mean % inhibition of signal in confirmation assay came out at 21.8%.

Molecule B4 returned a Mean % inhibition of signal in confirmation assay of 17.2%.

The molecule B5 displayed a Mean % inhibition of signal in confirmation assay of 11.9%.

B6 gave a Mean % inhibition of signal in confirmation assay of 25%.

B7: the Mean % inhibition of signal in confirmation assay was 44.7%.

Regarding B8, the Mean % inhibition of signal in confirmation assay was found to be 46.7%.

As for B9, the Mean % inhibition of signal in confirmation assay was 78.8%.

As for B10, the Mean % inhibition of signal in confirmation assay was 94.3%.

Molecule B11 yielded a Mean % inhibition of signal in confirmation assay of 77.1%.

For the molecule B12, the Mean % inhibition of signal in confirmation assay was 98%.

Turning to B13, the Mean % inhibition of signal in confirmation assay worked out at 68.9%.

Consider B14, for which the Mean % inhibition of signal in confirmation assay turned out to be 47.2%.

Turning to B15, the Mean % inhibition of signal in confirmation assay came out at 52.9%.

Molecule B16 yielded a Mean % inhibition of signal in confirmation assay of 29.1%.

In turn, B17 gave a Mean % inhibition of signal in confirmation assay of 29.7%.

In turn, B18 had a Mean % inhibition of signal in confirmation assay of 8.76%.

Regarding B19, the Mean % inhibition of signal in confirmation assay was 33%.

The next assay shares this target. Nature of the assay: ADA confirmation assay (MSD): 10 ug/mL test material against labelled DOM1H-131-206; share of 10 ADA-positive sera with binding.
Regarding B1, the % subjects with ADA binding (10 subjects) (% of subjects) worked out at 50.

The molecule B20 had a % subjects with ADA binding (10 subjects) (% of subjects) of 40.

B2: the % subjects with ADA binding (10 subjects) (% of subjects) was found to be 40.

Regarding B21, the % subjects with ADA binding (10 subjects) (% of subjects) stood at 100.

For the molecule B22, the % subjects with ADA binding (10 subjects) (% of subjects) came to 100.

With B23, the % subjects with ADA binding (10 subjects) (% of subjects) turned out to be 100.

Another assay shares this target. Nature of the assay: ADA confirmation assay (MSD): 10 ug/mL test material against labelled DOM1H-131-206, mean of 10 sera. The source holds these as a separate data set.
Regarding B1, the Mean % inhibition of signal in confirmation assay came to 26.4%.

B24 had a Mean % inhibition of signal in confirmation assay of 8.26%.

Molecule B20 showed a Mean % inhibition of signal in confirmation assay of 19.6%.

Take B2: the Mean % inhibition of signal in confirmation assay turned out to be 28.3%.

Consider B21, for which the Mean % inhibition of signal in confirmation assay is 90.9%.

B22 gave a Mean % inhibition of signal in confirmation assay of 99.2%.

In turn, B23 showed a Mean % inhibition of signal in confirmation assay of 58.3%.

Molecule B25 showed a Mean % inhibition of signal in confirmation assay of 11%.

Molecule B26 came in with a Mean % inhibition of signal in confirmation assay of 14%.

As for B27, the Mean % inhibition of signal in confirmation assay was 16.3%.

As for B28, the Mean % inhibition of signal in confirmation assay came to 12.5%.

The target is the same in a further assay. Nature of the assay: ADA confirmation assay (MSD): 10 ug/mL test material against labelled DOM1H-131-206; share of 10 ADA-positive sera with binding. This is another data set of the same source.
B1 yielded a % subjects with ADA binding (10 subjects) (% of subjects) of 20.

Molecule B3 came in with a % subjects with ADA binding (10 subjects) (% of subjects) of 10.

As to B6, the % subjects with ADA binding (10 subjects) (% of subjects) was determined as 10.

Molecule B7 displayed a % subjects with ADA binding (10 subjects) (% of subjects) of 40.

B8 displayed a % subjects with ADA binding (10 subjects) (% of subjects) of 50.

As for B9, the % subjects with ADA binding (10 subjects) (% of subjects) is 100.

In turn, B10 came in with a % subjects with ADA binding (10 subjects) (% of subjects) of 100.

B11 showed a % subjects with ADA binding (10 subjects) (% of subjects) of 80.

Molecule B12 came in with a % subjects with ADA binding (10 subjects) (% of subjects) of 100.

B13 registered a % subjects with ADA binding (10 subjects) (% of subjects) of 100.

Regarding B14, the % subjects with ADA binding (10 subjects) (% of subjects) was determined as 60.

For the molecule B15, the % subjects with ADA binding (10 subjects) (% of subjects) was found to be 60.

Molecule B16 came in with a % subjects with ADA binding (10 subjects) (% of subjects) of 10.

B17 came in with a % subjects with ADA binding (10 subjects) (% of subjects) of 20.

Turning to B19, the % subjects with ADA binding (10 subjects) (% of subjects) was determined as 20.
